Substitutions are numbered along the chain they refer to. Blank lines part the entries; values can stand above or below the binder they belong to.
Target: T1, full-length human Tau (flTau) (human, UniProt P10636-8 1-441)
T1 construct: range 1-441; bought (SignalChem); also called human Tau-441
Test: SPR, hybridoma Ab on anti-IgG chip, flTau analyte
Method: Affinity of non-purified antibodies in serum-free hybridoma supernatants was estimated by surface plasmon resonance using a Biacore T-100 instrument (GE Healthcare, United Kingdom). Antibodies were immobilized onto an anti-IgG biosensor chip, and flTau (SignalChem, Canada) was used as the target analyte. Kinetic analysis was done using a 1:1 Langmuir fit model.
For affinity measurements to flTau, antibodies were measured using SPR on a Biacore instrument, with the KDs determined. Biacore affinity measurements were done by immobilizing antibodies on an anti-IgG chip and using flTau as the target analyte.

T1 sequence (P10636 other isoform, or with tags, fused parts or gaps limits assumed): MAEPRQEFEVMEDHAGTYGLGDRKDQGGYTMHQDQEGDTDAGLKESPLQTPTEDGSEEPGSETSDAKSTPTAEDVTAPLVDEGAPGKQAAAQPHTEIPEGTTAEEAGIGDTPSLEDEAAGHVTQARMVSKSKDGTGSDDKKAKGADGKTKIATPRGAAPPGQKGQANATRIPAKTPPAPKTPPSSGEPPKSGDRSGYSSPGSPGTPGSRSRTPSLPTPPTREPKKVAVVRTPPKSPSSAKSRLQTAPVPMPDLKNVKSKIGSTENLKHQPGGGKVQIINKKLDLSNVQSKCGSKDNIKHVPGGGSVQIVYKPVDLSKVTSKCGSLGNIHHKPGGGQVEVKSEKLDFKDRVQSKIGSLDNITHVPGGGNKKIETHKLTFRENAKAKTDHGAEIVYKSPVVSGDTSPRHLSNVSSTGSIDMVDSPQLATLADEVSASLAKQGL

B1: 63H3-D8 (antibody, V domains shown)
VH: QIQLVQSGPELKKPGETVKISCKASGYTFTSHGMSWVKQAPGKGLKWMGWINTYSGVPTYADDFKGRFAFSLETSASTAYLQINNLKNEDTATYFCARSELSWFAYWGQGTLVTVSA
VL: DIVMTQSPATLSVTPGDRVSLSCRASQSISDYLHWYQQKSHESPRLLIKYASQSISGIPSRFSGSGSGSDFTLSINSVEPEDVGVYYCQNGHSFPYTFGGGTKLEIK
notes: hybridoma supernatant
Kd: 0.5 nM

B2: 64B9-F12 (antibody, V domains shown)
VH: B1 VH with K12R, S31T, H32Y, K43E, V57M, S77R
VL: B1 VL with S93N
notes: hybridoma supernatant
Kd: 2 nM

B5: 22G7-C9 (antibody, V domains shown)
VH: QIQLVQSGPELKKPGETVKISCKASGYTFTDCSIHWVKQAPGEGLKWMGWINTETGEPSYADDFKGRFAFSLETSASTAFLQINNLKSEDTASYFCGTAYYRYDGALDYWGQGTSVTVSS
VL: DIVLTQSPASLAVSLGQRATISCRASQSVSTSSYSYMHWFQQKPGQPPKLLIKYASNLESGVPARFSGSGSGTDFTLNIHPVEEEDTATYYCQHSWELPWTFGGGTKLEIK
notes: hybridoma supernatant
Kd: 36 nM

B6: 26C1-C8 (antibody, V domains shown)
VH: EVHLQQSGAELVRSGASVKLSCTASGFNIKDYYMYWVKQRPEQGLEWIGWIDPENGDTEYFPKFQGKATMTADTSSKTAYLQLSSLTSEDTAVYYCNAWRARATNSALDYWGQGTSVTVSS
VL: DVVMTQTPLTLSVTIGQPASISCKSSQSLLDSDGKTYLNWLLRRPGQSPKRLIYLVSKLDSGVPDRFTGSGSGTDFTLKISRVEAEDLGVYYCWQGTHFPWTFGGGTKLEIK
notes: hybridoma supernatant
Kd: 4.3 nM

B7: 113F5-F7 (antibody, V domains shown)
VH: EVKLEESGGGLVQPGGSMRLSCVASEFTFSNYWMNWIRQSPEKGLEWVAQIRLKSDNYATHYAESVKGRFTISRDASNFSVYLQMNNLRAEDTGIYYCTGGTSYWGQGTTLTVSS
VL: DIVMTQSQKIMSTSVGDRVSITCKASQNVGTAVAWYQQRPGHSPKLLIYSASRRFSGVPDRFTGSGSGTDFTLTIINVQSEDLADYFCQQFSTYPYTFGVGTKLEIK
notes: hybridoma supernatant
Kd: 2.4 nM

B9: 307H3E8 (antibody, V domains shown)
VH: EVKFEESGGGLVQPGGSMKLSCVASGFTFSNYWMNWVRQSPEKGLEWVAQIRLKSDNHATHYAESVKGRFTISRDDSKSTVYLQMNNLGAEDTGIYFCTEGGAYFDYWGQGTTLTVSS
VL: DVVMTQTPLSLPVSLGDQASISCRSSQNLVHSNGNTYFHWYLQKPGQSPKLLIYKVSNRFSGVPDRFSGSGSGTDFTLKISRVEAEDLGVYVCSQSTHVPPTFGGGTKLEIK
Kd: 1 nM

B10: 52F6-F11 (antibody, V domains shown)
VH: QVQLQQSGTELAKPGASVKLSCKASGYTFTHYWMHWIKQRPGQGLEWIGYIYPTNDYTKYNQNFRDKATLTADESSNSAYMQLNSLTYEDSAVYYCARAGNRVFDFWGQGTTLTVSS
VL: QAVVTQESALTTSPGETVTLTCRSSTGAVTTSNFANWVQEKPDHLFTGLIGGTNNRAPGVPARFSGSLIGDKAALTITGAQTEDEAIYFCALWYSNLWVFGGGTKLTVL
notes: hybridoma supernatant
Kd: 8.4 nM

B13: 61E7-C4 (antibody, V domains shown)
VH: EVQLVESGGDLVKPGGSLKVSCVASGFTFRSYGMSWVRQTPDKRLDWVATISSGGNYTYYPDSVKGRFTISRDNAKNTLYLQMSSLKSEDTAMYYCASSYSGAMDYWGQGTSVTVSS
VL: DTVMTQSPLSLPVSLGDQASISCRSSQSIVHSNGNTYLEWYLQKPGQSPKLLIYTVSNRFSGVPDRFSGSGSGTDFTLKISRVEAEDLGVYYCFQGSHVPWTFGGGTKLEIK
notes: hybridoma supernatant
Kd: 3.3 nM

B15: 19F8-B1 (antibody, V domains shown)
VH: EVQLQQSGPELVKPGASVKMSCKASGYTFTDYYMKWVKQSHGKSLEWIGDLNPNNGGTLYNQKFKGQATLTVDKSSSTAYMQFNSLTSEDSAVYYCARSAGYGDSFAYWGQGTLVTVSA
VL: B13 VL with T2V, V3L, S7T, S28N, T55K, V90I, Y92F, W101P
notes: hybridoma supernatant
Kd: 2.9 nM

B16: 24A11-D5 (antibody, V domains shown)
VH: B15 VH with N54K, T58I, L59I, F83L, Y94F, A100G
VL: B13 VL with T2V, V3L, S7T, S28N, T55K, V90I, Y92F, W101P
notes: hybridoma supernatant
Kd: 2 nM

Results, then the binder that gave them:

Kd: 0.8 nM
B3: 65B1-A2 (antibody, V domains shown)
VH: QVQLKESGPGLVAPSQSLSITCTISGFSLTTYGVHWVRQPPGKGLEWLVVIWSDGSTTYNSALKSRLSISKDNSKSQVFLKMNSLQTDDTAMYYCARQGGFITTAYYAMDYWGQGTSVTVSS
VL: DIVMSQSPSSLAVSAGEKVTMSCKSSQSLLNSRTRKNYLAWYQQKPGQSPKLLIYWASTRESGVPDRFTGSGSGTDFTLTISSVQAEDLAVYYCKQSYNLYTFGGGTKLEIK
notes: hybridoma supernatant

Kd: 1 nM
B4: 49G10-F4 (antibody, V domains shown)
VH: QVQLQQPGAELVQPGASVKLSCKASGYTFTNYWMQWIKQRPGQGLEWIGEIDPSDSYTNYNQNFKDKATLTVDTSSRTAYMQLSSLTSEDSAVYYCTRRWYINSVRYFDVWGTGTTVTVSA
VL: DVLMTQTPLSLSASLGDQASISCRSSQSIVHSNGNIYLEWYLQKPGQSPKLLIYKVSNRFSGVSDRFSGSGSGTDFTLKISRVEAEDLGVYYCFQGAHVPFTFGAGTKLEIK
notes: hybridoma supernatant

Kd: 0.5 nM
B8: 7A11-C12 (antibody, V domains shown)
VH: QIQLVQSGPDLKKPGETVKISCKASGYTFTNYGMNWVKQAPGKGLKWMGWINTNTGEPTYAEEFKGRFAFSLETSASTAYLQIDNLKNEDTATYFCARGTVSFPYWGQGTLVTVSA
VL: B9 VL with T5S, Q18H, N33D, F38L, V92F, P100I, P101F, G105S
notes: hybridoma supernatant

Kd: 0.4 nM
B11: 83E10-D6 (antibody, V domains shown)
VH: EVQLQQSGAELVRSGASVKLSCTASGFNIKDYYIQWVKQRPEQGLEWIGWIDPENGDTDYAPKFQGKATMTADTSSNTAYLQFSSLTSEDTAVYYCNRGWGYWGQGTTLTVSS
VL: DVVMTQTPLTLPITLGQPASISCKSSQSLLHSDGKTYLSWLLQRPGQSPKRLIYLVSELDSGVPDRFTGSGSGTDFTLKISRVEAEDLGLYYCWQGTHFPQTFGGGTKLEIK
notes: hybridoma supernatant

Kd: 0.8 nM
B12: 71H8-D6 (antibody, V domains shown)
VH: B11 VH
VL: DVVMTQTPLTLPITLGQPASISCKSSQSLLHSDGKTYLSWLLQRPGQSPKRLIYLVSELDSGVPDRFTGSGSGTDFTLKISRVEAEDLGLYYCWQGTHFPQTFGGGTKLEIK
notes: hybridoma supernatant

Kd: 0.6 nM
B14: 30A1-C9 (antibody, V domains shown)
VH: GVQLQQSGPELVKPGASVKISCKTSGYTFTEYTMHWMKQSHGKSLEWIGGIDPNTGNTNYNQKFKGKATLTVDKSSSTAYMDLRSLTSEDSAVYYFYGSGYWGQGTILTVSS
VL: B13 VL with T2V, V3L, Y41F, T55K, G96A, W101R
notes: hybridoma supernatant

Kd: 0.2 nM
B17: 231G3F10 (antibody, V domains shown)
VH: EVRLVESGGGLVQPKGSLKLSCAASGFSFNTYAMNWVRQAPGKGLEWVARIRSKRNNFATYYADSVKDRFTISRDDSKSMLYLQMNNLKTEDTAMYYCVRWGYDDPYAMDYWGQGTSVTVSS
VL: NIMMTQSPSSLAVSAGEKVTMSCKSSQSVLYSSNQKNYLAWYQQKPGQSPKLLIYWASARESGVPDRFTGSGSGTDFTLTISSVQAEDLAVYYCHQYFSSFTFGSGTKLEIK
